Results from patent EP4631959A2, “NOVEL MINIGASTRIN-DERIVED CHOLECYSTOKININ 2 RECEPTOR BINDING MOLECULES FOR IMAGING AND TARGETED RADIOTHERAPY” (priority 2022, dated 2024).
Like-named read-outs stand apart in the source and are kept apart here. Starred links: 1 amine or outer side, 2 acyl side, 3 side chain; linkers in the order of their positions; H or OH if unused. Non-standard residues stand in square brackets, D forms with d. Residues, ends and D or L forms follow the SMILES beside them. *: point of attachment. Benzoyl(4-SiFtBu2) = CC(C)(C)[Si](F)(c1ccc(C(=O)*)cc1)C(C)(C)C; DOTA = O=C(O)CN1CCN(CC(=O)O)CCN(CC(=O)*)CCN(CC(=O)O)CC1; d(γGlu) = O=C(O)[C@@H](CCC(=O)[*:2])N[*:1]; 1Nal = N[C@@H](Cc1cccc2ccccc12)C(=O)O; Hyp = O=C(O)[C@@H]1C[C@@H](O)CN1; NMeNle = CCCC[C@H](NC)C(=O)O; PEG4 = NCCOCCOCCOCCOCCC(=O)O; dDap = NC[C@@H](N)C(=O)O

Experiment: Biodistribution in AR4-2J tumor-bearing CB17-SCID mice
Format: in vivo
Conditions: female, CB17-SCID, mouse, in vivo, iv, 100 pmol, total radioactivity, 100 pmol; for tissue uptake at 1 h: 1 h p.i.; for tissue uptake at 2 h: 2 h p.i.; for tissue uptake at 4 h: 4 h p.i.
Method: All animal experiments were conducted in accordance with general animal welfare regulations in Germany (German animal protection act, in the edition of the announcement, dated May 18th, 2006, as amended by Article 280 of June 19th 2020, approval no. ROB-55.2-1-2532.Vet_02-18-109 by the General Administration of Upper Bavaria) and the institutional guidelines for the care and use of animals. CB17-SCID mice of both genders (Charles River Laboratories International Inc., Sulzfeld, Germany) were let to acclimate at the in-house animal facility at least for one week before inoculation was performed. To establish tumor xenografts, AR4-2J cells (5.0 × 10^6 cells per 200 µL) were suspended in a 1/1 mixture (v/v) of Dulbecco modified Eagle medium / Nutrition Mixture F-12 with Glutamax-I (1/1) and Cultrex® Basement Membrane Matrix Type 3 (Trevigen, Gaithersburg, MD, USA) and inoculated subcutaneously onto the right shoulder of 6-10 weeks old CB17-SCID mice (Charles River, Sulzfeld, Germany). Mice were used for experiments when tumors had grown to a volume of 150-300 mm^3 (1-2 weeks after inoculation). Exclusion criteria for animals from an experiment were either a weight loss higher than 20%, a tumor size above 1,500 mm^3, an ulceration of the tumor, a respiratory distress or a change of behavior. None of these criteria applied to any animal from the experiment. Neither randomization nor blinding was applied in the allocation of the experiments. Health status is SPF according to FELASA.
Approximately 1-5 MBq (100 pmol) of the radiolabeled minigastrin analogues were injected into the tail vein of AR4-2J tumor-bearing female CB17-SCID mice and sacrificed at 1 to 24 h post injection (n = 4-5). Selected organs were removed, weighted and measured in a γ-counter.

[1] = read-out: activity levels in the blood
[2] = read-out: activity levels in the tumor

## CCCC[C@@H](C(=O)N[C@@H](CC(=O)O)C(=O)N[C@@H](Cc1cccc2ccccc12)C(N)=O)N(C)C(=O)[C@H](Cc1c[nH]c2ccccc12)NC(=O)CCOCCOCCOCCOCCNC(=O)CC[C@@H](NC(=O)[C@@H]1C[C@@H](O)CN1C(=O)[C@@H]1C[C@@H](O)CN1C(=O)[C@@H]1C[C@@H](O)CN1C(=O)[C@@H]1C[C@@H](O)CN1C(=O)[C@@H]1C[C@@H](O)CN1C(=O)[C@@H]1C[C@@H](O)CN1C(=O)CC[C@@H](NC(=O)[C@@H](CNC(=O)c1ccc([Si](F)(C(C)(C)C)C(C)(C)C)cc1)NC(=O)CN1CCN(CC(=O)O)CCN(CC(=O)O)CCN(CC(=O)O)CC1)C(=O)O)C(=O)O [DOTA-rhCCK-84, DOTA-dap(SiFA)-γ-glu-(Hyp)6-γ-glu-(PEG)3-Trp-(N-Me)Nle-Asp-1-Nal-NH2] ({DOTA}-[dDap](Benzoyl(4-SiFtBu2))[d(γGlu)][Hyp][Hyp][Hyp][Hyp][Hyp][Hyp][d(γGlu)][PEG4]W[NMeNle]D[1Nal]-NH2)
[1]
  tissue uptake at 1 h: 11.3 ± 1.3 %ID/g
  tissue uptake at 2 h: 3.71 ± 0.46 %ID/g
  tissue uptake at 4 h: 1.14 ± 0.18 %ID/g
read-out: tumor uptake
  tissue uptake at 1 h: 36.3 ± 3.7 %ID/g
[2]
  tissue uptake at 2 h: 35 ± 2.9 %ID/g
  tissue uptake at 4 h: 34 ± 3.6 %ID/g
24 h p.i., read-out: activity levels in the kidneys
  tissue uptake at 24 h: < 10 %ID/g
